The record followed here is patent US20230295310A1 (ABCELLERA BIOLOGICS, published 2023).

As a reminder, the Kd is the free concentration of one partner at which half of the binding sites on the other are occupied at equilibrium, for simple one-to-one binding.

Experiment [1] deals with T1, human CD3e/d (human, UniProt P07766 23-126; P04234 22-105).
T1 construct: Bought soluble protein; also called hCD3e/d; human CD3/ed (Sino CT038-H2508H)
The experiment in a line: SPR (Carterra LSA), mAb on chip. How it is done:
(§1) High-throughput surface plasmon resonance (SPR) coupled kinetic experiments were performed on a Carterra LSA® instrument equipped with an HC-30M chip type (Carterra, USA). The instrument uses two microfluidic modules, a single-flow cell (SFC) and a 96 printhead, to deliver samples to the chip surface via back-and-forth cycling of a fixed sample volume. An up to 384-ligand array is generated by docking the MFC onto each of the four nested print block locations in a serial manner.
(§2) The purified mAbs were immobilized on a Carterra LSA® HC-30M chip by direct coupling. The chip surface was first activated by flowing a freshly prepared 1:1:1 activation mix of 100 mM MES pH 5.5, 100 mM S-NHS, 400 mM EDC for 7 min. mAbs diluted to 10 μg/mL in 10 mM NaOAc pH 4.25+0.01% TWEEN®20 were then injected and printed onto the chip surface simultaneously using the MFC printhead for 10 min. Finally, the chip surface was quenched by flowing 1 M ethanolamine for 7 min (to block the excess reactive esters), followed by 2 wash steps of 15 s each in 25 mM MES pH 5.5. In addition to expressed and purified mAbs, relevant benchmarks and negative control mAbs were also printed on the chip surface.
(§3) The data were analyzed using the Carterra Kinetics analysis software. Briefly, the data were referenced with the interstitial reference spots and double-referenced to a buffer cycle, and then fit globally to a 1:1 Langmuir binding model to determine their apparent association (ka) and dissociation (kd) kinetic rate constants and binding affinity constants (KD).

For experiment [2], the target named is T2, human CD3e/g (human, UniProt P07766 23-126; P09693 23-116).
T2 construct: Bought soluble protein; also called hCD3e/g; human CD3e/g (Acro CDD-C52W4)
The experiment in a line: SPR (Carterra LSA), mAb on chip. How it is done: as §1, §2, §3

T1 sequence (P07766 23-126, chain 1 of 2): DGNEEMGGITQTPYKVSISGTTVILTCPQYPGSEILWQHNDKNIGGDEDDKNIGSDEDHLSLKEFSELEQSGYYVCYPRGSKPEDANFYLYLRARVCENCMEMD
T1 sequence (P04234 22-105, chain 2 of 2): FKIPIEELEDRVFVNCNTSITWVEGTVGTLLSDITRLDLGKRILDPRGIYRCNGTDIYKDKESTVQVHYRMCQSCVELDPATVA
T2 sequence (P07766 23-126, chain 1 of 2): as the sequence (P07766 23-126, chain 1 of 2) above
T2 sequence (P09693 23-116, chain 2 of 2): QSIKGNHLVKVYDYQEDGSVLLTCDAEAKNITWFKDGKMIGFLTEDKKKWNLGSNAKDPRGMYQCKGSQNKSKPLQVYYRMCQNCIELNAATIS

B1: mAb 286 (antibody, V domains shown)
VH: EVKLVESGGGVVRPGGSLRLSCAASGFTFDDYGMSWVRQAPGKGLEWVSGISWNGGSTGYADSVKGRFTISRDNAKNSLYLQMNSLRAEDTALYHCARDGVPVVKRRYYYYYMDVWGKGTTVTVSS
VL: EIVLTQSPDFQSVTPKEKVTITCRASQSIGSSLHWYQQKPDQSPKLLIKYASQSFSGVPSRFSGRGSGTDFTLTINSLEAEDAATYYCHQSGSLPQTFGQGTKVEIK
notes: VH and VL only
On to B1, for which the Kd in experiment [1] stood at 580 nM.

B2: mAb 290 (antibody, V domains shown)
VH: EVQLVESGGGVVRPGGSLRLSCAASGFTFDDYGMSWVRQAPGKGLEWVSGISWNGGSTGYADSVKGRFTISRDNAKNSLYLQMNSLRAEDTALYHCARDGVPVVKRRYYYYYMDVWGKGTTVTVSS
VL: EIVLTQSPDFQSVTPKEKITITCRASQSIGSSLHWYQQKPDQSPKLLIKYASQSFSGVPSRFSGSGSGTDFTLTINSLEAEDAATYYCHQSASLPQTFGQGTKVEIK
notes: VH and VL only
In turn, B2 returned a Kd in experiment [1] of 3200 nM.

B3: mAb 119 (antibody, V domains shown)
VH: EVQLVESGGGLVQPGRSLRLSCAASGFTFDDYTMHWVRQAPGKGLEWVSGISWNSGSIGYADSVKGRFTISRDNAKNSLYLQMNSLRAEDTALYYCSKDSSGYGYYLNYSLDVWGKGTTVTVSS
VL: EIVMTQSPATLSVSPGERATLSCRASQSVSNLAWYQQKPGQAPRLLIYGASTRATGIPARFSGSGSGTEFTLTISSLQSEDFAVYYCQQYNNWPHFGQGTRLQIK
notes: VH and VL only
With B3, binding in experiment [1] was put at a Kd of 37.2 nM.

B4: mAb 109 (antibody, V domains shown)
VH: QVQLVESGGGVVQPGRSLRLSCVASGFPFRSYGMHWVRQAPGKGLEWVAFIWYDGSNKYYADSVRGRFTISRDNFKKMVYLQMNSLRAEDTAVYYCARDLAGIYAFDVWGQGTVVTVSS
VL: EIVMTQSPATLSVSPGERATLSCRASQSVSSNLAWYQQKPGQAPRLLIYGASTRATGIPARFSGSGSGTEFTLTVSSLQSEDFAIYYCQQYNNWRPLTFGGGTKVEIK
notes: VH and VL only
With B4, the Kd in experiment [1] stood at 21.7 nM.

B5: mAb 42 (antibody, V domains shown)
VH: QAQLVQSGSELKKPGASVKVSCKASGYTFTKHSMNWVRQAPGQGLEWMGWINTNTGNPTYAQGFTGRFVFSLDTSVTTAYLQISSLKAEDTAVYYCAREGDYDFWSGFFNFDYWGQGTLVTVSS
VL: DIQMTQSPSSLSASVGDRVTITCRASQGIRNDLGWYQQKPGKAPKRLIYAASSLQSGVPSRFSGSGSGAEFTLTISSLQPEDFATYYCLQHNSYPRTFGQGTKVEIK
notes: VH and VL only
In experiment [2], B5 returned a Kd of 19.4 nM.

B6: mAb 67 (antibody, V domains shown)
VH: EVQLVESGGDLVQPGRSLRLSCAASGFTFDDCVIHWVRQAPGKGLEWVSGITWNSGRIGYADSVKGRFTISRDNAKNSLYLQMNSLRVEDTALYYCAKEGNYDFWSTYYRGYFDLWGRGTLVTVSS
VL: DIQMTQSPSSLSASVGDRVTITCRASQGIRNDLGWYQQKPGIAPKRLIYAASSLQGGVPLRFSGSGSGTEFTLTISSLQPEDFATYYCLQHNSYPYTFGQGTKLEIK
notes: VH and VL only
As for B6, in experiment [2], the Kd turned out to be 18.6 nM.

B7: mAb 53 (antibody, V domains shown)
VH: QVQLVQSGAEVKKPGASVKVSCKASGYTFTSYDINWVRQATGQGLEWMGWMNPKSGKTGYAQKFQGRITMTRNTPISTVYMDLSSLRSEDTAVYYCAREGHYDFWTGYYSFDYWGQGTLVTVSS
VL: DIQMTQSPSSLSASVGDRVTITCRASQGIRNDLGWYQQTPGKAPKRLIYAASSLQSGVPSRFSGSGSGTEFTLTISSLQPEDFATYYCLQHYSYPYTFGQGTKLEIK
notes: VH and VL only
For the molecule B7, in experiment [2], the Kd amounted to 258 nM.

B8: mAb 73 (antibody, V domains shown)
VH: EVELVESGGGLVQPGRSLRLSCAASGFTFDDKVMHWVRQAPGKGLEWVSCINWNSGHIGYADSVKGRFTISRDNARTSLYLQMNSLRPEDTALYYCVREGNYDFWSGYYRGFFDLWGRGTLVTVSS
VL: DIQMTQSPSSLSASVGDRVTITCRASQGIRNDLGWYQQKPGKAPKRLIYAASSLQGGVPSRFSGSGSGTEFTLTISSLQPEDFATYYCLQHTSYPFTFGQGTKLEIK
notes: VH and VL only
Consider B8, for which, in experiment [2], the Kd came to 16.2 nM.

B9: mAb 71 (antibody, V domains shown)
VH: QVQLVQSGAEVRKPGASVKVSCKASGYTFTKYDVNWVRQAPGQGLEWMGWMNSNNGNIGYAQKFQGRVTMTRKTSISTAYMELSSLRSEDTAVYYCAREGHYDFWRGFYNFDYWGQGTLVTVSS
VL: DIQMTQSPSSLSASVGDRVTITCRASQDIKNDLGWYQQKPGKAPKRLIYAASSLQSGVPSRFSGSGSGTEFTLTISSLQPEDFATYYCLQHNFYPITFGQGTRLEIK
notes: VH and VL only
As to B9, binding in experiment [2] was put at a Kd of 113 nM.

B10: mAb 74 (antibody, V domains shown)
VH: EVQLVESGGGLVQPGRSLRLSCAASGFTFADYVMHWVRQAPGKGLEWVSGINWNNARIGYVGSVKGRFTISRDNAKNSLYLQMTSLRVEDTALYHCVREGNFDFWSAYYRGFLDLWGRGTLVTVSS
VL: DIQMTQSPSSLSASVGDRVTITCRASQGIRSDLGWYQQKPGKAPKRLIYGASSLQGGVPSRFSGSGSGTEFTLTISSLQPEDFATYYCLQHNSYPYTFGQGTKLEIK
notes: VH and VL only
B10 had a Kd in experiment [2] of 9.83 nM.

B11: mAb 55 (antibody, V domains shown)
VH: QVQLEQSGAEVKKPGASVKVSCKTSGYIFANYDINWVRQATGQGLEWMGWMNPKSGKAGYAQKFQGRVTMTSNTPINTAYMELSSLRSEDTAVYYCAREGHYDFWRGFYSFDYWGQGILVTVSS
VL: DIQMTQSPSSLSASVGDRVTITCRASQGIRNDLGWYQQKPGKAPKRLIYTASSLQSGVPSRFSGSGSGTEFTLTISSLQPEDFATYFCLQYNTYPYTFGQGTKLEIK
notes: VH and VL only
Take B11: in experiment [2], the Kd was determined as 85.7 nM.

B12: mAb 50 (antibody, V domains shown)
VH: QAQLVQSGSELKKPGASVKVSCKASGYTFTRHAMNWVRQAPGQGLEWMGWINTNTGNPTYAQGFTGRFVFSLDTSVTTAYLQISSLKAEDTAVYYCAREGDYDFWSGFFNFDYWGQGTLVTVSS
VL: DIQMTQSPSSLSASVGDRVTITCRASQGIRNDLGWFQQKPGKAPTRLIYAASSLQSGVPSRFSGSGSGAEFTLTISSLQPEDFATYYCLQHNSYPRTFGQGTKVEIK
notes: VH and VL only
For B12, the Kd in experiment [2] is 34.3 nM.

B13: mAb 47 (antibody, V domains shown)
VH: QAQLVQSGSELKKPGASVKVSCKASGYTFTKHSMNWVRQAPGQGLEWMGWINTNTGNPTYAQGFTGRFVFSLDTSVTTAYLQISSLKAEDTAVYYCAREGDYDFWSGFFNFDYWGQGTLVTVSS
VL: DIQMTQSPSSLSASVGDRVTITCRASQGIRNDLGWYQQKPGKAPKRLIYAASSLQSGVPSRFSGSGSGTEFTLTISSLQPEDFATYYCLQHNSYPRTFGQGTKVEIK
notes: VH and VL only
As to B13, the affinity in experiment [2], expressed as Kd, was 20.1 nM.

B14: mAb 43 (antibody, V domains shown)
VH: QAQLVQSGSELKKPGASVKVSCKASGYTFTKHSMNWVRQAPGQGLEWMGWINTNTGNPMYAQGFTGRFVFSLDTSVTTAYLQISSLKAEDTAVYYCAREGDYDFWSGFFNFDYWGQGTLVTVSS
VL: DIQMTQSPSSLSASVGDRVTITCRASQGIRNDLGWYQQKPGKAPKRLIYAASSLQSGVPSRFSGSGSGAEFTLTISSLQPEDFATYYCLQHNSYPRTFGQGTKVEIK
notes: VH and VL only
B14 had a Kd in experiment [2] of 21.7 nM.

B15: mAb 44 (antibody, V domains shown)
VH: QAQLVQSGSELKKPGASVKVSCKASGYTFTRHAMNWVRQAPGQGLEWMGWINTNTGNPTYAQGFTGRFVFSLDTSVSTAYLKISSLKAEDTAVYYCVREGDYDFWSGFFNFDYWGQGTLVTVSS
VL: DIQMTQSPSSLSASVGDRVTITCRASQGIRNDLGWFQQKPGKAPTRLIYAASSLQSGVPSRFSGSGSGAEFTLTISSLQPEDFATYYCLQHNSYPRTFGQGTKVEIK
notes: VH and VL only
B15: binding in experiment [2] was characterised by a dissociation constant (Kd) of 19.1 nM.

B16: mAb 77 (antibody, V domains shown)
VH: EVQLVESGGGLVQPGGSLRLSCAASGFTFSNYWMSWVRQAPGKGLEWVANIKQDGSEKYYVDSVRGRFTISRDNAKKSLYLQMNSLRAEDTAVYYCARDNSNYAYWYFDIWGRGTLVTVSS
VL: DIQMTQSPSTLSVSVGDRVTITCRASQSIRKWLAWYQQKPGKAPKLLIFKASSLESGVPSRFSGSGSGTEFTLTISSLQPDDFATYYCQQYDTYSRTFGQGTKVEIK
notes: VH and VL only
Consider B16, for which the Kd in experiment [1] amounted to 286 nM.

B17: mAb 316 (antibody, V domains shown)
VH: EVQLLESGGGLVQPGGSRRLSCAASGFTFRTYAMSWVRQAPGKGLEWVSVINGRGDDTNYADSVKGRFTISRDNSKNILFLQMNSLRAEDTAVYYCAKKYSYYYYYMDVWGKGTTVTVSS
VL: SYELTQPLSVSVALGQTARITCGGNNIGSKDVHWYQQKPGQAPVLVIYRDSNRPSGIPERFSGSNSGNTATLTISRAQAGDEADYYCQVWDSRTAVFGGGTQLTAL
notes: VH and VL only
B17 showed a Kd in experiment [1] of 70 nM.

B18: mAb 306 (antibody, V domains shown)
VH: EVQLLESGGGLVQPGGSLRLSCAASGFTFNSYAMSWVRQAPGRGLEWVSAISGRKSTTYYADSVKGRFTISRDNSKNTLYLQMNSLRAEDTAVYYCAKLWNYYYYYMDVWGKGTTVTVSS
VL: SYELTQPLSVSVALGQTARITCGGNNIGSKDVHWYQQKPGQAPVLVIYRDSNRPSGIPERFSGSNSGNTATLTISRAQAGDEADYYCQVWDSSTAVFGGGTQLTAL
notes: VH and VL only
As to B18, the dissociation constant Kd in experiment [1] was 250 nM.

B19: mAb 318 (antibody, V domains shown)
VH: EGQLLESGGGLVQPGGSLRLSCAASGFTFSRYAMSWIRQAPGKGLEWVSVIDGSGGDKNYADSVKGRFTISRDNSKNSLYLLMNGLRVEDTAIYFCAKKFSYYYYYMDVWGKGTSVTVSS
VL: SYELTQPLSVSVALGQTARITCGGNNIGGKDVHWYQQKPGQAPVLVIYRDSNRPSGIPERFSGSNSGNTATLTISRAQAGDEADYYCQVWDSRTAVFGGGTQLTAL
notes: VH and VL only
In the case of B19, the affinity in experiment [1], expressed as Kd, was 84 nM.
